B1: Vrp1p-His (full-length S. pombe verprolin Vrp1p with a COOH-terminal His-tag) (natural protein)
chain: MAPAPPPPPPAPAPAAAAPAPPLMTGDRSALLNSIQKGKKLKKATTNDRSAPVVGGGVVGERKSNTPKSFAAPPVPTGAPSLPTSSNNTQQAEERPSMPALGGLFAGGMPKLRHIGKSSASAAPPSAPAPPTPQSELRPPTSAPPRPSIPPPSPASAPPIPSKAPPIPSSLPPPAQPAAPVKSPPSAPSLPSAVPPMPPKVPPPPLSQAPVANTSSRPSSFAPPAGHAPNVTSESPKFPNRGPSIPSASVPPVPPSSYVLQQRPNRVDDHGRFHFKDDSYLPIPHPFLGVPKVYRGGSGTTVPLNLSSF
B2: GST-Myo1p-23A (GST fused to the TH2-SH3-CA domains of the S. pombe myosin-I Myo1p tail) (domain or fragment, UniProt Q9Y7Z8 965-1217, looked up)
chain: TSKSKPFPRLATGGSTAAARGPRPVVQNKPAATKPVSMPAAKSKPAPMANPVSTAQQTQNRPPAPAMQARPNTTQAAAPVTSTTTTIKQATTVSASKPAPSTVTSAASSPSNISKPSAPVANNVSKPSAVPPPPPPPPAEVEKKDLYLALYDFAGRSPNEMTIKKDEIIEIVQKEPSGWWLALKNGAEGWVPATYVTEYKGSTPQTTASSTNVAAQANNNASPAEVNNLAGSLADALRMRASAVRGSDEEEDW

The target in assay [1] is actin monomers (UniProt P68135 1-377). In words: pull-down.
The target of assay [2] is B1. The assay is described as follows: pull-down.

“And” between values parts separate entries of the source, which are not always exact repeats. Identical values can stand only once.

This note sets out measurements from article PMC2171502 (The Journal of Cell Biology, 2005).

The Kd is the free concentration of one partner at which half of the binding sites on the other are occupied at equilibrium, for simple one-to-one binding. A high value points to weaker binding.

Take B1: in assay [1], the Kd was 1000 nM and 900 nM and 800 nM.

Regarding B2, the Kd in assay [2] is 4600 nM and 5600 nM.
